Where a chain is given by its changes, count along the chain named. Names may count otherwise.
B1: antibody 13.1.2 (antibody, human IgG1, V domains shown)
VH: QVQLVESGGGVVQPGRSLRLSCAASGFTFSSYGMHWVRQAPGKGLEWVAVIWYDGSNKYYVDSVKGRFTISRDNSKNTLYLQMNSLRAEDTAVYYCARDGWQQLAPFDYWGQGTLVTVSS
VL: not shown
notes: Hybridoma derived fully human IgG1 kappa
B2: 13.1.2 variant L99H-9.2 (antibody, V domains shown)
VH: B1 VH
VL: not shown
notes: also called Leu99His; 99His
B3: 13.1.2 variant L217N-2.1 (antibody, V domains shown)
VH: B1 VH with L104N
VL: not shown
notes: Position 217 of the joint numbering = residue 104 of the heavy chain variable region (heavy chain starts at 114); also called Leu217Asn; 217Asn
B4: 13.1.2 variant L99T-5.3 (antibody, V domains shown)
VH: B1 VH
VL: not shown
notes: also called Leu99Thr; leu99Thr
B5: 13.1.2 variant N35G-3.1 (antibody, V domains shown)
VH: B1 VH
VL: DIVMTQTPLSSPVTLGQPASISCRSSQSLVHSDGGTYLSWLHQRPGQPPRLLIYKISNRFSGVPDRFSGSGAGTAFTLKISRVEAEDVGVYYCMQATQLPRTFGQGTKVEIKR
notes: also called Asn35Gly; 35Gly
B6: 13.1.2 variant L99N-4.1 (antibody, V domains shown)
VH: B1 VH
VL: not shown
notes: also called Leu99Asn; 99Asn
B7: 13.1.2 variant L217Q-10.1 (antibody, V domains shown)
VH: B1 VH with L104Q
VL: not shown
notes: Position 217 of the joint numbering = residue 104 of the heavy chain variable region; also called Leu217Gln; 217Gln
B8: 13.1.2 variant Y172R-1.2 (antibody, V domains shown)
VH: B1 VH with Y59R
VL: not shown
notes: Position 172 of the joint numbering = residue 59 of the heavy chain variable region; also called Tyr172Arg; 172Arg
B9: antibody 131 (antibody, human IgG1, V domains shown)
VH: QVQLVESGGGVVQSGRSLRLSCAASGFTFRNYGMHWVRQAPGKGLEWVAVIWYDGSDKYYADSVRGRFTISRDNSKNTLYLQMNSLRAEDTAVYYCARDGYDILTGNPRDFDYWGQGTLVTVSS
VL: DTVMTQTPLSSHVTLGQPASISCRSSQSLVHSDGNTYLSWLQQRPGQPPRLLIYRISRRFSGVPDRFSGSGAGTDFTLEISRVEAEDVGVYYCMQSTHVPRTFGQGTKVEIK
notes: XenoMax derived; variable regions cloned into human IgG1 and IgK expression vectors; also called SC131
B10: antibody 095 (antibody, human IgG1, V domains shown)
VH: QVQLQESGPFLVKPSQTLSLTCTVSGGSISSGGYYWSWIRQHPGKGLEWIGFIYYRGNTYYNPSLKSRVTISVDTSKNQFSLKLSSVTAADTAVYYCARDGYCSRTGCYGGWFDPWGQGTLVTVSP
VL: DIVMTQTPLSSPVTLGQPASISCRSSQSLIHTDGNIYLSWLQQRPGQPPRLLIYKISNRFSGVPDRFSGSGAGTDFTLKISRVEAEDVGVYYCMQGTQFPITFGQGTRLEIK
notes: Recombinant human IgG1 kappa; also called mAb 095; SC95
B11: antibody 211 (antibody, human IgG1, V domains shown)
VH: QVQLVESGGGVVQPGRSLRLSCVASGFTLSSYGMHWVRQAPGKGLEWVAVTSYDGSKKDYADSAKGRFTISRDNSKNTLYLQMNSLRAEDTAVYYCVSEGYCSSSSCYKYYYYGMDVWGQGTTVTVSS
VL: DIVMTQSPLSLPVTPGEPASISCRSSQSLLYRNGNNYLDWYLQRPGQSPQLLIYLGSNRASGVPDRFSGSGSGTDFTLKISRVEAEDVGVYYCMQALQTPRTFGQGTKVEIK
notes: Recombinant human IgG1 kappa; also called SC211; sc211
B12: antibody 139 (antibody, human IgG1, V domains shown)
VH: EVQVLESGGGLVQPGGSLRLSCAASGFTFSSYAMSWVRQAPGKGLEWVSAISGSGGSTNYADSVKGRFTISRDNSKNTLYLQMNSLRAEDTAVYYCAGSSGWSEYWGQGTLVTVSS
VL: DIQMTQSPSSLSASVGDRVTITCRASQGIRNNLAWYQQKPGKAPKRLIYAASNLQSGVPSRFTGSGSGTEFTLIVSSLQPEDFATYYCLQHHSYPLTSGGGTKVEIK
notes: Recombinant human IgG1 kappa; also called SC139
B13: antibody 250 (antibody, human IgG1, V domains shown)
VH: B12 VH with V2G, V4L, L11W, G16E, M83V, A88V
VL: DIQMTQSPSSLSASVGDSVTITCRTSQGIRKNLGWYQQKPGKAPKRLIYAASSLQSGVPSRFSGSGSGTEFTLTISRLQPEDFATYYCLQHHSYPLTFGGGTRVEIR
notes: Recombinant human IgG1 kappa; also called SC250; sc250

Molecular target: T1, Pep-3, NH2-LEEKKGNYVVTDHG-OH (human)
T1 construct: MW 1590 Da; free peptide of the Biacore and KinExA experiments
T1 peptide: H-LEEKKGNYVVTDHG-OH
Assay: logarithm of the measured Kd (Biacore, pep-3), listed beside simulated energies
With B1 the “Ln(Kd)” value was -16.3. B2 was tested, and the “Ln(Kd)” value was -14.7. B3 was tested, and the “Ln(Kd)” value was -15.5. In the case of B4, the “Ln(Kd)” value is reported as -16.5. B5 was tested, and the “Ln(Kd)” value was -15.4. For B6, the “Ln(Kd)” value was -13.5. For B7, the “Ln(Kd)” value was -16.2. With B8 the “Ln(Kd)” value was -13.9.

Molecular target: T1, Pep-3, NH2-LEEKKGNYVVTDHG-OH
Assay: pep3 KinExA
Method: All KinExA experiments were conducted at room temperature (˜23° C.). For all equilibrium experiments, antigen was serially diluted into solutions having a constant mAb binding site concentration. For the first 10 titration points the dilutions were 2-fold and the 11th and 12th serial dilutions were 10-fold. The sample flow rate for all experiments was 0.25 mL/min and the labeling antibody flow rate was 0.5 mL/min. […] A sample volume of 250 μL was analyzed for the antibody-controlled experiment. Two or three replicates of each sample were measured for all equilibrium experiments. The equilibrium titration data were fit in a dual curve analysis to a 1:1 binding model using KinExA software (Version 2.4, Sapidyne Instruments).
B9 was tested, and the Kd was 0.05 pM.

Each binder was assayed against T2, EGFRvIII (type III deletion mutant of the epidermal growth factor receptor), expressed on cells (human, UniProt P00533 298-1210) (assay: FACS titration on NR6 cells expressing EGFRvIII, PE fluorescence intensity (geo mean)).
T2 construct: Also used for lysates of H1477 cells in Western blots; also called delta-EGFr; dEGFR
With B9 the “EC50 (read off the curve)” value was about 0.1 µg/mL.

These binders were tested against T2, EGFRvIII (type III deletion mutant of …) (assay: FACS, NR6 M cells, 0.25 µg/ml mAb + Alexa anti-human IgG Fab, 37 C without glutathione).
Method: XenoMax derived IgG1 recombinant antibodies were expressed, purified and quantitated as described previously. Antibodies were further assayed for their ability to internalize the EGFRvIII receptor in NR6 M cells. […] The cells were washed with cold 10% FCS in PBS and secondary antibody (SS Alexa antihuman IgG Fab) at 3 μg/ml Fab was added and incubated for 7 mins on ice. The cells were washed with cold 10% FCS in PBS once and then resuspended in cold media. Next, two sets of the triplicate were incubated at 37° C. and the remaining set was incubated at 4° C. for 1 hr. After that the cells incubated at 4° C. and one set of the cells incubated at 37° C. were treated with glutathione (as previously mentioned) for 1 hr on ice. Then the cells were washed and resuspended in 100 μl of cold 1% FCS in PBS and analyzed by FACS. The % internalization was calculated from the geometric mean obtained from the FACS analysis [(mean at 37° C. with glutathione—mean at 4° C. with glutathione)/(mean at 37° C. without glutathione—mean at 4° C. with glutathione)].
B1 was tested, and the FACS geometric mean was 22.1. Binder B10 has an FACS geometric mean of 22.6. B11 showed an FACS geometric mean of 20.8. For B12, the FACS geometric mean was 22.6. B13 showed an FACS geometric mean of 24.1.

These binders were tested against T3, EGFRvIII-Rabbit Fc fusion protein (human; rabbit, UniProt P00533 298-645) (assay: ELISA, minilipofection supernatant titrated 1:2 on EGFRvIII-Rab Ig Fc fusion protein).
T3 construct: whole entry named; also called EGFRvIII-RbFc; EGFRvIII-Rab Ig Fc fusion protein; not shown: Hinge-CH2-CH3 domain of rabbit IgG
Method: The secretion ELISA tests were performed as follows. […] The plates were washed five times with dH₂O. Recombinant antibodies were titrated 1:2 for 7 wells from the undiluted minilipofection supernatant. The plates were washed five times with dH₂O. A goat anti-human IgG Fc-specific HRP-conjugated antibody was added at a final concentration of 1 μg/mL for 1 hour at RT for the secretion plates and binding plates detected with 1 μg/ml Rb anti Hu Fc for 1 hour at room temperature. The plates were washed five times with dH₂O. The plates were developed with the addition of TMB for 30 minutes and the ELISA was stopped by the addition of 1 M phosphoric acid. Each ELISA plate was analyzed to determine the optical density of each well at 450 nm.
In the case of B9, the “titer (antigen binding)” value is reported as over 64 reciprocal dilution.
